This data set concerns the molecule itself. Description: FRET or BRET. (In general: In BRET a luciferase serves as donor, and the signal depends on an acceptor being close.)

B1: hOCT2 tagged with CFP or YFP at the N terminus (natural protein)
chain: MPTTVDDVLEHGGEFHFFQKQMFFLLALLSATFAPIYVGIVFLGFTPDHRCRSPGVAELSLRCGWSPAEELNYTVPGPGPAGEASPRQCRRYEVDWNQSTFDCVDPLASLDTNRSRLPLGPCRDGWVYETPGSSIVTEFNLVCANSWMLDLFQSSVNVGFFIGSMSIGYIADRFGRKLCLLTTVLINAAAGVLMAISPTYTWMLIFRLIQGLVSKAGWLIGYILITEFVGRRYRRTVGIFYQVAYTVGLLVLAGVAYALPHWRWLQFTVSLPNFFFLLYYWCIPESPRWLISQNKNAEAMRIIKHIAKKNGKSLPASLQRLRLEEETGKKLNPSFLDLVRTPQIRKHTMILMYNWFTSSVLYQGLIMHMGLAGDNIYLDFFYSALVEFPAAFMIILTIDRIGRRYPWAASNMVAGAACLASVFIPGDLQWLKIIISCLGRMGITMAYEIVCLVNAELYPTFIRNLGVHICSSMCDIGGIITPFLVYRLTNIWLELPLMVFGVLGLVAGGLVLLLPETKGKALPETIEEAENMQRPRKNKEKMIYLQVQKLDIPLN
In turn, B1 registered an NFRET of 0.176.

These data come from publication PMC4503226 (FASEB journal : official publication of the Federation of …, 2011).
